From the supplement of paper PMC10724198
± gives the standard deviation of the averaged measurements.

How the values were obtained:
Assay in all cases: protein stability index of tFT-peptide fusion (C-terminal peptide) (PSI (0-1 scale)); higher = more stable (slower turnover)
[1] = tested on: Saccharomyces cerevisiae; details: temperature: 30 C
Protocol: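 MPS profiling in S. cerevisiae of the yeast C-terminome library: the last 12 aa of each annotated ORF are fused to the C-terminus of a sfGFP-mCherry timer, after a GGGS linker. Cells are FACS-sorted into 8 mCherry/sfGFP bins and deep-sequenced. PSI runs from 0 (unstable) to 1 (stable); wild type and das1Δ backgrounds, two technical replicates each.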

[2] = tested on: Saccharomyces cerevisiae; details: genetic background: wild type; temperature: 30 C
[3] = tested on: Saccharomyces cerevisiae
Protocol: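 MPS profiling in S. cerevisiae of the tFT-X12 degron library: putative degron peptides plus stable controls, 12 aa, fused to the C-terminus of a sfGFP-mCherry timer. Cells are FACS-sorted into 8 mCherry/sfGFP bins and deep-sequenced. PSI runs from 0 (unstable) to 1 (stable). Backgrounds are wild type, das1Δ and doa10Δ at 30 °C, and wild type, das1Δ, cdc34-1 and cdc53-1 at 37 °C; 2-3 technical replicates each.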

[4] = genetic background: das1 deletion
[5] = genetic background: cdc34-1, temperature: 37 C
[6] = genetic background: cdc53-1, temperature: 37 C
[7] = genetic background: das1 deletion, temperature: 30 C
[8] = genetic background: das1 deletion, temperature: 37 C
[9] = genetic background: doa10 deletion, temperature: 30 C
[10] = genetic background: wild type, temperature: 30 C
[11] = genetic background: wild type, temperature: 37 C

EIVGRYVVETSK [ADH5 C-terminal 12 aa]
protein stability index [1, 4]: 0.678 ± 0.028
protein stability index ([1]; genetic background: wild type): 0.6821 ± 0.0047

HDRSESDSDLDI [PLP1 C-terminal 12 aa]
protein stability index [1, 4]: 0.671 ± 0.015
protein stability index ([1]; genetic background: wild type): 0.677 ± 0.015

YLEAFQWLSQYI [SAR1 C-terminal 12 aa]
protein stability index [1, 4]: 0.7969 ± 0.0076
protein stability index ([1]; genetic background: wild type): 0.7631 ± 0.0025

ATAREWTKKYAV [UBC4 C-terminal 12 aa]
protein stability index [1, 4]: 0.702 ± 0.0071
protein stability index ([1]; genetic background: wild type): 0.7122 ± 0.0016

FLFSCMLYKIDP [YML089C C-terminal 12 aa]
protein stability index [1, 4]: 0.669 ± 0.027
protein stability index ([1]; genetic background: wild type): 0.664 ± 0.034

SKSGSGGCCIIS [RAS2 C-terminal 12 aa]
protein stability index [1, 4]: 0.736 ± 0.0091
protein stability index ([1]; genetic background: wild type): 0.711 ± 0.011

GLTLIGRQSDSI [RAD7 C-terminal 12 aa]
protein stability index [1, 4]: 0.7025 ± 0.0011
protein stability index ([1]; genetic background: wild type): 0.71 ± 0.074

KFDKALYKKTTG [YMR206W C-terminal 12 aa]
protein stability index [1, 4]: 0.712 ± 0.038
protein stability index ([1]; genetic background: wild type): 0.669 ± 0.03

KEKSESLQEEIN [YET3 C-terminal 12 aa]
protein stability index [1, 4]: 0.691 ± 0.0081
protein stability index ([1]; genetic background: wild type): 0.71 ± 0.032

IASKNNWLPLQW [SIW14 C-terminal 12 aa]
protein stability index [1, 4]: 0.73114 ± 0.00013
protein stability index ([1]; genetic background: wild type): 0.732 ± 0.045

LGEYIEEMNIRS [YBP2 C-terminal 12 aa]
protein stability index [1, 4]: 0.7143 ± 0.0008
protein stability index ([1]; genetic background: wild type): 0.684 ± 0.018

DMEMEAIAAERD [HMF1 C-terminal 12 aa]
protein stability index [1, 4]: 0.714 ± 0.03
protein stability index ([1]; genetic background: wild type): 0.706 ± 0.031

EQLEQDDGRKGG [LSM12 C-terminal 12 aa]
protein stability index [1, 4]: 0.682 ± 0.024
protein stability index ([1]; genetic background: wild type): 0.669 ± 0.023

KRKRRKVRARSK [RPL41A C-terminal 12 aa]
protein stability index [1, 4]: 0.7678 ± 0.006
protein stability index ([1]; genetic background: wild type): 0.764 ± 0.066

ESYRDDSIEAED [NCR1 C-terminal 12 aa]
protein stability index [1, 4]: 0.6933 ± 0.001
protein stability index ([1]; genetic background: wild type): 0.7157 ± 0.0012

AWSYLARQVLYY [YGR176W C-terminal 12 aa]
protein stability index [1, 4]: 0.6986 ± 0.0046
protein stability index ([1]; genetic background: wild type): 0.688 ± 0.032

SRQFEQNLQIND [SLF1 C-terminal 12 aa]
protein stability index [1, 4]: 0.7394 ± 0.0052
protein stability index ([1]; genetic background: wild type): 0.676 ± 0.013

TWFKYFKWLDMF [MRX3 C-terminal 12 aa]
protein stability index [1, 4]: 0.7723 ± 0.0025
protein stability index ([1]; genetic background: wild type): 0.217 ± 0.0084

NEASKATGASVH [YOP1 C-terminal 12 aa]
protein stability index [1, 4]: 0.7 ± 0.0098
protein stability index ([1]; genetic background: wild type): 0.737 ± 0.094

QPKKKRKKSILH [SPP41 C-terminal 12 aa]
protein stability index [1, 4]: 0.749 ± 0.061
protein stability index ([1]; genetic background: wild type): 0.672 ± 0.05

RERALKVYKDAM [PHR1 C-terminal 12 aa]
protein stability index [1, 4]: 0.6824 ± 0.004
protein stability index ([1]; genetic background: wild type): 0.657 ± 0.0079

FSNLLWFDQNFA [STB4 C-terminal 12 aa]
protein stability index [1, 4]: 0.742 ± 0.014
protein stability index ([1]; genetic background: wild type): 0.786 ± 0.079

EMLGDKVNKKGI [SOK1 C-terminal 12 aa]
protein stability index [1, 4]: 0.727 ± 0.0085
protein stability index ([1]; genetic background: wild type): 0.67 ± 0.012

QTLAPVPYETFI [RPL21A C-terminal 12 aa]
protein stability index [1, 4]: 0.718 ± 0.01
protein stability index ([1]; genetic background: wild type): 0.728 ± 0.013

GGKDKMVRLWTH [RSA4 C-terminal 12 aa]
protein stability index [1, 4]: 0.691 ± 0.011
protein stability index ([1]; genetic background: wild type): 0.698 ± 0.0076

LLPMAFGPSHLN [CDD1 C-terminal 12 aa]
protein stability index [1, 4]: 0.743 ± 0.032
protein stability index ([1]; genetic background: wild type): 0.76 ± 0.045

RKAVDALRSLTN [ACK1 C-terminal 12 aa]
protein stability index [1, 4]: 0.719 ± 0.051
protein stability index ([1]; genetic background: wild type): 0.722 ± 0.045

VKFVYRQRIALV [YLL037W C-terminal 12 aa]
protein stability index [1, 4]: 0.577 ± 0.0095
protein stability index ([1]; genetic background: wild type): 0.195 ± 0.0078

EFLTNSILTRRK [COQ1 C-terminal 12 aa]
protein stability index [1, 4]: 0.721 ± 0.048
protein stability index ([1]; genetic background: wild type): 0.651 ± 0.065

GMYSRAYETHTL [ERG7 C-terminal 12 aa]
protein stability index [1, 4]: 0.7 ± 0.012
protein stability index ([1]; genetic background: wild type): 0.696 ± 0.022

IPLVISYCISEE [ATX2 C-terminal 12 aa]
protein stability index [1, 4]: 0.575 ± 0.013
protein stability index ([1]; genetic background: wild type): 0.596 ± 0.024

LDKELTDGCKQQ [PEX19 C-terminal 12 aa]
protein stability index [1, 4]: 0.7031 ± 0.005
protein stability index ([1]; genetic background: wild type): 0.684 ± 0.012

VVYYHMVCKNIT [YHR125W C-terminal 12 aa]
protein stability index [1, 4]: 0.5662 ± 0.0017
protein stability index ([1]; genetic background: wild type): 0.573 ± 0.038

LKDLEKLGWKDE [YGR054W C-terminal 12 aa]
protein stability index [1, 4]: 0.695 ± 0.013
protein stability index ([1]; genetic background: wild type): 0.666 ± 0.022

KCVNCGHRWKEN [RPC11 C-terminal 12 aa]
protein stability index [1, 4]: 0.708 ± 0.012
protein stability index ([1]; genetic background: wild type): 0.616 ± 0.02

FKGFLENIDSYT [AIM22 C-terminal 12 aa]
protein stability index [1, 4]: 0.714 ± 0.021
protein stability index ([1]; genetic background: wild type): 0.706 ± 0.0014

QDGIKEAASALA [INO80 C-terminal 12 aa]
protein stability index [1, 4]: 0.6794 ± 0.0025
protein stability index ([1]; genetic background: wild type): 0.665 ± 0.04

DQPFYKSLFSRK [HXT1 C-terminal 12 aa]
protein stability index [1, 4]: 0.7117 ± 0.0036
protein stability index ([1]; genetic background: wild type): 0.685 ± 0.053

VTSKSALESIFP [YGP1 C-terminal 12 aa]
protein stability index [1, 4]: 0.73 ± 0.0083
protein stability index ([1]; genetic background: wild type): 0.678 ± 0.031

DTFIPSTLQSVT [YNL089C C-terminal 12 aa]
protein stability index [1, 4]: 0.702 ± 0.026
protein stability index ([1]; genetic background: wild type): 0.678 ± 0.015

GVIIELGSWSAW [YDR415C C-terminal 12 aa]
protein stability index [1, 4]: 0.7055 ± 0.0066
protein stability index ([1]; genetic background: wild type): 0.71701 ± 0.00054

CKTLNYARPQSN [BNA1 C-terminal 12 aa]
protein stability index [1, 4]: 0.6906 ± 0.0025
protein stability index ([1]; genetic background: wild type): 0.727 ± 0.031

AKEWDLEDPKSM [TAF9 C-terminal 12 aa]
protein stability index [1, 4]: 0.7024 ± 0.0067
protein stability index ([1]; genetic background: wild type): 0.726 ± 0.057

IVNVMFCLVRGF [DSC3 C-terminal 12 aa]
protein stability index [1, 4]: 0.42 ± 0.021
protein stability index ([1]; genetic background: wild type): 0.404 ± 0.03

NLLLSGSLYQKN [BUD28 C-terminal 12 aa]
protein stability index [1, 4]: 0.751 ± 0.011
protein stability index ([1]; genetic background: wild type): 0.672 ± 0.036

LIQFLEPSKRVA [YPT35 C-terminal 12 aa]
protein stability index [1, 4]: 0.72 ± 0.037
protein stability index ([1]; genetic background: wild type): 0.722 ± 0.042

ALDAELDAYMKG [YRA2 C-terminal 12 aa]
protein stability index [1, 4]: 0.67911 ± 5.2e-05
protein stability index ([1]; genetic background: wild type): 0.7 ± 0.0058

KKRDPITGEVFE [ERG5 C-terminal 12 aa]
protein stability index [1, 4]: 0.6849 ± 0.0021
protein stability index ([1]; genetic background: wild type): 0.667 ± 0.016

DDRPIYKRFFSS [HXT9 C-terminal 12 aa]
protein stability index [1, 4]: 0.7117 ± 0.0052
protein stability index ([1]; genetic background: wild type): 0.654 ± 0.023

PNAIRGIKAKKA [COX7 C-terminal 12 aa]
protein stability index [1, 4]: 0.723 ± 0.011
protein stability index ([1]; genetic background: wild type): 0.675 ± 0.046

KHKNILLFNNNT [YAL068W-A C-terminal 12 aa]
protein stability index [1, 4]: 0.699 ± 0.011
protein stability index ([1]; genetic background: wild type): 0.686 ± 0.017

LRIYKNPPLDGP [YJL163C C-terminal 12 aa]
protein stability index [1, 4]: 0.729 ± 0.022
protein stability index ([1]; genetic background: wild type): 0.745 ± 0.017

QEGTFKRLALPA [THI11 C-terminal 12 aa]
protein stability index [1, 4]: 0.639 ± 0.013
protein stability index ([1]; genetic background: wild type): 0.65426 ± 7.7e-05

MIENEKQNPAKQ [OSH6 C-terminal 12 aa]
protein stability index [1, 4]: 0.693 ± 0.0075
protein stability index ([1]; genetic background: wild type): 0.692 ± 0.028

KAFFISKTLPCI [YLR112W C-terminal 12 aa]
protein stability index [1, 4]: 0.7141 ± 0.0031
protein stability index ([1]; genetic background: wild type): 0.766 ± 0.07

GNAEFAASLLFQ [DDI1 C-terminal 12 aa]
protein stability index [1, 4]: 0.7205 ± 0.0066
protein stability index ([1]; genetic background: wild type): 0.7022 ± 0.0025

GGLWRRLCLGVG
protein stability index [2]: 0.329 ± 0.041
protein stability index [3, 5]: 0.4 ± 0.021
protein stability index [3, 6]: 0.4633 ± 0.0012
protein stability index [3, 7]: 0.388 ± 0.018
protein stability index [3, 8]: 0.469 ± 0.011
protein stability index [3, 9]: 0.3 ± 0.0089
protein stability index [3, 10]: 0.311 ± 0.016
protein stability index [3, 11]: 0.453 ± 0.016

PVLSLPPLSSPP
protein stability index [2]: 0.7068 ± 0.0043
protein stability index [3, 5]: 0.682 ± 0.032
protein stability index [3, 6]: 0.7318 ± 0.0057
protein stability index [3, 7]: 0.682 ± 0.0089
protein stability index [3, 8]: 0.7244 ± 0.0058
protein stability index [3, 9]: 0.691 ± 0.034
protein stability index [3, 10]: 0.691 ± 0.02
protein stability index [3, 11]: 0.7044 ± 0.0064

SLSALPRPPRLL
protein stability index [2]: 0.614 ± 0.26
protein stability index [3, 5]: 0.669 ± 0.0078
protein stability index [3, 6]: 0.713 ± 0.022
protein stability index [3, 7]: 0.673 ± 0.021
protein stability index [3, 8]: 0.7323 ± 0.0002
protein stability index [3, 9]: 0.698 ± 0.027
protein stability index [3, 10]: 0.677 ± 0.023
protein stability index [3, 11]: 0.694 ± 0.0087
